Target: PA63 (cleaved protective antigen) (Bacillus anthracis) (UniProt P13423)
Experiment: filter binding
Details: N15 and N23 = AEGIS dP

PA63 (cleaved protective antigen) (Bacillus anthracis), sequence (P13423 197-764): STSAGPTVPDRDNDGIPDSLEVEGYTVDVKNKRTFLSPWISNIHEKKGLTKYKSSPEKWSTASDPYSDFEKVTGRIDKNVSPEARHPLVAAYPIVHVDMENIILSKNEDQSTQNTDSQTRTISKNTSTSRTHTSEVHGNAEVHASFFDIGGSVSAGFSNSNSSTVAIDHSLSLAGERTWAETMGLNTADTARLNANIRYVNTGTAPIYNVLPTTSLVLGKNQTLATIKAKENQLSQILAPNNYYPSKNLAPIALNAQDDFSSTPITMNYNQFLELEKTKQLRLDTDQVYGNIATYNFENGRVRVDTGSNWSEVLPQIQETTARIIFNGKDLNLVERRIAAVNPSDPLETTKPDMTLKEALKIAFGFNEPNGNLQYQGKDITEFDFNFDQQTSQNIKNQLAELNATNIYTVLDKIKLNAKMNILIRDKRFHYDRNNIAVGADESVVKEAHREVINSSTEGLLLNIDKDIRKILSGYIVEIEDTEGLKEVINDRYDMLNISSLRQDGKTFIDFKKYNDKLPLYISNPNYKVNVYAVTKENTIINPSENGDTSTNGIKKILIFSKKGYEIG

CGTGTAAACCATGGNGTGAGTGNGTAGGTGTCCTGAGGAGGT [PA1T4A6A7]
Kd: 2290 nM

Source: publication PMC5175368
